According to US20260242735A1 (UNIVERSIT T BASEL, published 2026):

B1: Refmab #2 (antibody, human IgG1, V domains shown)
VH: QVQLVQSGAEVKKPGSSVKVSCKASGGTFSDYAISWVRQAPGQGLEWMGRIIPILGVADYAQKFQGRVTITADKSTRTAYMELSSLRSEDTAVYYCARNWADAFDIWGQGTMVTVSS
VL: DIQLTQSPSSLSASVGDRVTITCRASQGISSVLAWYQQKPGKAPKLLIYDASSLESGVPSRFSGSGSGTDFTLTISSLQPEDFATYYCQQFDSSITFGQGTKLEIK
notes: tested in IgG format
B2: Refmab #3 (antibody, human IgG1, V domains shown)
VH: QVQLVQSGAEVKKPGSSVKVSCKASGYTFTDYNMHWVRQAPGQGLEWIGYIYPYNGGTGYNQKFKSKATITADESTNTAYMELSSLRSEDTAVYYCARGRPAMDYWGQGTLVTVSS
VL: DIQMTQSPSSLSASVGDRVTITCRASESVDNYGISFMNWFQQKPGKAPKLLIYAASNQGSGVPSRFSGSGSGTDFTLTISSLQPDDFATYYCQQSKEVPWTFGQGTKVEIK
notes: tested in IgG format
B3: Refmab #4 (antibody, human IgG1, V domains shown)
VH: QVQLVQSGAEVKKPGESVKVSCKASGYTFTNYGMNWVKQAPGQGLEWMGWINTYTGEPTYADKFQGRVTMTTDTSTSTAYMEIRNLGGDDTAVYYCARWSWSDGYYVYFDYWGQGTSVTVSS
VL: DIVMTQSPDSLTVSLGERTTINCKSSQSVLDSSTNKNSLAWYQQKPGQPPKLLLSWASTRESGIPDRFSGSGSGTDFTLTIDSPQPEDSATYYCQQSAHFPITFGQGTRLEIK
notes: Full-length MAb format, human IgG1 Fc silent (PG-LALA)
B4: Refmab #4 (antibody, human IgG1, V domains shown)
VH: B3 VH
VL: B3 VL
notes: tested in IgG format
B5: Refmab #1 (antibody, human IgG1, V domains shown)
VH: EVQLVQSGAEVKKPGSSVKVSCKASGYTITDSNIHWVRQAPGQSLEWIGYIYPYNGGTDYNQKFKNRATLTVDNPTNTAYMELSSLRSEDTAFYYCVNGNPWLAYWGQGTLVTVSS
VL: DIQLTQSPSTLSASVGDRVTITCRASESLDNYGIRFLTWFQQKPGKAPKLLMYAASNQGSGVPSRFSGSGSGTEFTLTISSLQPDDFATYYCQQTKEVPWSFGQGTKVEVK
notes: Full-length MAb format, human IgG1; also called hP67.6
B6: Refmab #1 (antibody, human IgG1, V domains shown)
VH: B5 VH
VL: B5 VL
notes: tested in IgG format; also called hP67.6

Tests used:
human CD33 S131N = human CD33 S131N (human, UniProt P20138 18-364); assay: flow cytometry, HEK293-T, IgG;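 further: CD33 point mutants transiently expressed, antibody binding measured by fluorescence in duplicate, background subtracted and scaled to binding on wild-type CD33 as 100%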
Sequence of human CD33 S131N (P20138 18-364 S131N limits assumed): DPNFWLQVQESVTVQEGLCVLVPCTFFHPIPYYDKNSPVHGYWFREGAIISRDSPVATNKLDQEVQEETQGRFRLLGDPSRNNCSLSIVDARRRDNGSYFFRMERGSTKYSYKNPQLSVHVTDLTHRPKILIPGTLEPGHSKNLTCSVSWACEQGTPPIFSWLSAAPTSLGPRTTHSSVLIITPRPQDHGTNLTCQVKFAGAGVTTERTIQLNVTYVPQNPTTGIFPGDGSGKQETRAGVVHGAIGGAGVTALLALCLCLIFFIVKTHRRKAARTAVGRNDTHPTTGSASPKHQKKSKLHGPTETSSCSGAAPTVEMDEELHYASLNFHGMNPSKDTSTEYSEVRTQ
Method: (§1) An alanine scan on human CD33 was performed to the determine the residues on CD33 that are involved in binding to the antibodies investigated. […] Briefly, a mutation library of CD33 was created by high-throughput, site-directed mutagenesis. Each residue was individually mutated to alanine, with alanine codons mutated to serine. The mutant library was arrayed in 384-well microplates and transiently transfected into HEK293-T. Following transfection, cells were incubated with the indicated antibodies (IgG or Fab) at concentrations pre-determined using an independent immunofluorescence titration curve on wild type CD33. […] Binding of each antibody to each mutant clone was determined in duplicates. For each point, background fluorescence was subtracted from the raw data, which were then normalized to antibody reactivity with wild type CD33.
(§2) Antibodies were screened for binding to the human CD33 variants in IgG format. […] For each mutation, background fluorescence was subtracted from the raw data, which were then normalized to antibody reactivity with wild-type CD33.

human CD33 S131D = human CD33 S131D (human, UniProt P20138 18-364); assay: flow cytometry, HEK293-T, IgG;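 further: CD33 point mutants transiently expressed, antibody binding measured by fluorescence in duplicate, background subtracted and scaled to binding on wild-type CD33 as 100%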
Sequence of human CD33 S131D (P20138 18-364 S131D limits assumed): as the sequence (P20138 18-364 S131N limits assumed) above, with N114D counted along it
Method: as §1, §2

human CD33 S131I = human CD33 S131I (human, UniProt P20138 18-364); assay: flow cytometry, HEK293-T, IgG;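 further: CD33 point mutants transiently expressed, antibody binding measured by fluorescence in duplicate, background subtracted and scaled to binding on wild-type CD33 as 100%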
Sequence of human CD33 S131I (P20138 18-364 S131I limits assumed): as the sequence (P20138 18-364 S131N limits assumed) above, with N114I counted along it
Method: as §1, §2

human CD33 P132S = human CD33 P132S (human, UniProt P20138 18-364); assay: flow cytometry, HEK293-T, IgG;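 further: CD33 point mutants transiently expressed, antibody binding measured by fluorescence in duplicate, background subtracted and scaled to binding on wild-type CD33 as 100%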
Sequence of human CD33 P132S (P20138 18-364 P132S limits assumed): as the sequence (P20138 18-364 S131N limits assumed) above, with N114S, P115S counted along it
Method: as §1, §2

human CD33 L134T = human CD33 L134T (human, UniProt P20138 18-364); assay: flow cytometry, HEK293-T, IgG
Sequence of human CD33 L134T (P20138 18-364 L134T limits assumed): as the sequence (P20138 18-364 S131N limits assumed) above, with N114S, L117T counted along it
Method: as §1, §2

human CD33 P132Q = human CD33 P132Q (human, UniProt P20138 18-364); assay: flow cytometry, HEK293-T, IgG
Sequence of human CD33 P132Q (P20138 18-364 P132Q limits assumed): as the sequence (P20138 18-364 S131N limits assumed) above, with N114S, P115Q counted along it
Method: as §1, §2

human CD33 L134F = human CD33 L134F (human, UniProt P20138 18-364); assay: flow cytometry, HEK293-T, IgG
Sequence of human CD33 L134F (P20138 18-364 L134F limits assumed): as the sequence (P20138 18-364 S131N limits assumed) above, with N114S, L117F counted along it
Method: as §1, §2

human CD33 S131H = human CD33 S131H (human, UniProt P20138 18-364); assay: flow cytometry, HEK293-T, IgG
Sequence of human CD33 S131H (P20138 18-364 S131H limits assumed): as the sequence (P20138 18-364 S131N limits assumed) above, with N114H counted along it
Method: as §1, §2

human CD33 P132N = human CD33 P132N (human, UniProt P20138 18-364); assay: flow cytometry, HEK293-T, IgG
Sequence of human CD33 P132N (P20138 18-364 P132N limits assumed): as the sequence (P20138 18-364 S131N limits assumed) above, with N114S, P115N counted along it
Method: as §1, §2

human CD33 S131M = human CD33 S131M (human, UniProt P20138 18-364); assay: flow cytometry, HEK293-T, IgG
Sequence of human CD33 S131M (P20138 18-364 S131M limits assumed): as the sequence (P20138 18-364 S131N limits assumed) above, with N114M counted along it
Method: as §1, §2

human CD33 P132T = human CD33 P132T (human, UniProt P20138 18-364); assay: flow cytometry, HEK293-T, IgG
Sequence of human CD33 P132T (P20138 18-364 P132T limits assumed): as the sequence (P20138 18-364 S131N limits assumed) above, with N114S, P115T counted along it
Method: as §1, §2

human CD33 L134M = human CD33 L134M (human, UniProt P20138 18-364); assay: flow cytometry, HEK293-T, IgG
Sequence of human CD33 L134M (P20138 18-364 L134M limits assumed): as the sequence (P20138 18-364 S131N limits assumed) above, with N114S, L117M counted along it
Method: as §1, §2

human CD33 S131Y = human CD33 S131Y (human, UniProt P20138 18-364); assay: flow cytometry, HEK293-T, IgG
Sequence of human CD33 S131Y (P20138 18-364 S131Y limits assumed): as the sequence (P20138 18-364 S131N limits assumed) above, with N114Y counted along it
Method: as §1, §2

human CD33 L134Q = human CD33 L134Q (human, UniProt P20138 18-364); assay: flow cytometry, HEK293-T, IgG
Sequence of human CD33 L134Q (P20138 18-364 L134Q limits assumed): as the sequence (P20138 18-364 S131N limits assumed) above, with N114S, L117Q counted along it
Method: as §1, §2

human CD33 P132L = human CD33 P132L (human, UniProt P20138 18-364); assay: flow cytometry, HEK293-T, IgG
Sequence of human CD33 P132L (P20138 18-364 P132L limits assumed): as the sequence (P20138 18-364 S131N limits assumed) above, with N114S, P115L counted along it
Method: as §1, §2

human CD33 S131F = human CD33 S131F (human, UniProt P20138 18-364); assay: flow cytometry, HEK293-T, IgG
Sequence of human CD33 S131F (P20138 18-364 S131F limits assumed): as the sequence (P20138 18-364 S131N limits assumed) above, with N114F counted along it
Method: as §1, §2

human CD33 P132V = human CD33 P132V (human, UniProt P20138 18-364); assay: flow cytometry, HEK293-T, IgG
Sequence of human CD33 P132V (P20138 18-364 P132V limits assumed): as the sequence (P20138 18-364 S131N limits assumed) above, with N114S, P115V counted along it
Method: as §1, §2

human CD33 L134R = human CD33 L134R (human, UniProt P20138 18-364); assay: flow cytometry, HEK293-T, IgG
Sequence of human CD33 L134R (P20138 18-364 L134R limits assumed): as the sequence (P20138 18-364 S131N limits assumed) above, with N114S, L117R counted along it
Method: as §1, §2

human CD33 L134I = human CD33 L134I (human, UniProt P20138 18-364); assay: flow cytometry, HEK293-T, IgG
Sequence of human CD33 L134I (P20138 18-364 L134I limits assumed): as the sequence (P20138 18-364 S131N limits assumed) above, with N114S, L117I counted along it
Method: as §1, §2

human CD33 S131T = human CD33 S131T (human, UniProt P20138 18-364); assay: flow cytometry, HEK293-T, IgG
Sequence of human CD33 S131T (P20138 18-364 S131T limits assumed): as the sequence (P20138 18-364 S131N limits assumed) above, with N114T counted along it
Method: as §1, §2

human CD33 S131K = human CD33 S131K (human, UniProt P20138 18-364); assay: flow cytometry, HEK293-T, IgG
Sequence of human CD33 S131K (P20138 18-364 S131K limits assumed): as the sequence (P20138 18-364 S131N limits assumed) above, with N114K counted along it
Method: as §1, §2

human CD33 P132K = human CD33 P132K (human, UniProt P20138 18-364); assay: flow cytometry, HEK293-T, IgG
Sequence of human CD33 P132K (P20138 18-364 P132K limits assumed): as the sequence (P20138 18-364 S131N limits assumed) above, with N114S, P115K counted along it
Method: as §1, §2

human CD33 S131Q = human CD33 S131Q (human, UniProt P20138 18-364); assay: flow cytometry, HEK293-T, IgG
Sequence of human CD33 S131Q (P20138 18-364 S131Q limits assumed): as the sequence (P20138 18-364 S131N limits assumed) above, with N114Q counted along it
Method: as §1, §2

human CD33 S131W = human CD33 S131W (human, UniProt P20138 18-364); assay: flow cytometry, HEK293-T, IgG
Sequence of human CD33 S131W (P20138 18-364 S131W limits assumed): as the sequence (P20138 18-364 S131N limits assumed) above, with N114W counted along it
Method: as §1, §2

human CD33 P132Y = human CD33 P132Y (human, UniProt P20138 18-364); assay: flow cytometry, HEK293-T, IgG
Sequence of human CD33 P132Y (P20138 18-364 P132Y limits assumed): as the sequence (P20138 18-364 S131N limits assumed) above, with N114S, P115Y counted along it
Method: as §1, §2

human CD33 P132D = human CD33 P132D (human, UniProt P20138 18-364); assay: flow cytometry, HEK293-T, IgG
Sequence of human CD33 P132D (P20138 18-364 P132D limits assumed): as the sequence (P20138 18-364 S131N limits assumed) above, with N114S, P115D counted along it
Method: as §1, §2

human CD33 P132H = human CD33 P132H (human, UniProt P20138 18-364); assay: flow cytometry, HEK293-T, IgG
Sequence of human CD33 P132H (P20138 18-364 P132H limits assumed): as the sequence (P20138 18-364 S131N limits assumed) above, with N114S, P115H counted along it
Method: as §1, §2

human CD33 P132F = human CD33 P132F (human, UniProt P20138 18-364); assay: flow cytometry, HEK293-T, IgG
Sequence of human CD33 P132F (P20138 18-364 P132F limits assumed): as the sequence (P20138 18-364 S131N limits assumed) above, with N114S, P115F counted along it
Method: as §1, §2

human wild-type CD33 = target: T1, human wild-type CD33 (human, UniProt P20138 18-364); assay: flow cytometry, IgG at 0.25 ug/ml on HEK293-T cells expressing CD33 against vector alone
T1 construct: also called SIGLEC3; P67
T1 sequence (P20138 18-364 limits assumed): as the sequence (P20138 18-364 S131N limits assumed) above, with N114S counted along it
Method: Binding of the antibodies to the transfected cells and the optimal assay conditions were evaluated in 384-well format. Detection of cellular expression was measured via high-throughput flow cytometry. Serial dilutions of each antibody were tested for immunoreactivity against cells expressing CD33 or vector alone. The optimal screening concentration for each antibody was determined based on the raw signal values and signal-to-background calculations. Each point represents the mean of four replicates.

Row | Binder | Mean % WT Binding (human CD33 S131N) | Mean % WT Binding (human CD33 S131D) | Mean % WT Binding (human CD33 S131I) | Mean % WT Binding (human CD33 P132S) | Mean % WT Binding (human CD33 L134T) | Mean % WT Binding (human CD33 P132Q) | Mean % WT Binding (human CD33 L134F) | Mean % WT Binding (human CD33 S131H) | Mean % WT Binding (human CD33 P132N) | Mean % WT Binding (human CD33 S131M) | Mean % WT Binding (human CD33 P132T) | Mean % WT Binding (human CD33 L134M) | Mean % WT Binding (human CD33 S131Y) | Mean % WT Binding (human CD33 L134Q) | Mean % WT Binding (human CD33 P132L) | Mean % WT Binding (human CD33 S131F) | Mean % WT Binding (human CD33 P132V) | Mean % WT Binding (human CD33 L134R) | Mean % WT Binding (human CD33 L134I) | Mean % WT Binding (human CD33 S131T) | further results
1 | B1 | 126 % WT binding | 101 % WT binding | 110 % WT binding | 110 % WT binding | 99.2 % WT binding | 83.4 % WT binding | 106 % WT binding | 112 % WT binding | 100 % WT binding | 108 % WT binding | 103 % WT binding | 105 % WT binding | 98.5 % WT binding | 77.4 % WT binding | 116 % WT binding | 111 % WT binding | 102 % WT binding | 2.5 % WT binding | 105 % WT binding | 111 % WT binding | Mean % WT Binding (human CD33 S131K): 91.2 % WT binding; Mean % WT Binding (human CD33 P132K): 119 % WT binding; Mean % WT Binding (human CD33 S131Q): 110 % WT binding; Mean % WT Binding (human CD33 S131W): 92.4 % WT binding; Mean % WT Binding (human CD33 P132Y): 65 % WT binding; Mean % WT Binding (human CD33 P132D): 73.6 % WT binding; Mean % WT Binding (human CD33 P132H): 101 % WT binding; Mean % WT Binding (human CD33 P132F): 65.1 % WT binding
2 | B2 | 118 % WT binding | 93.9 % WT binding | 95.7 % WT binding | 95.8 % WT binding | 101 % WT binding | 80.1 % WT binding | 104 % WT binding | 100 % WT binding | 94.5 % WT binding | 91.9 % WT binding | 106 % WT binding | 106 % WT binding | 97.4 % WT binding | 87.7 % WT binding | 94.4 % WT binding | 103 % WT binding | 86.6 % WT binding | 1 % WT binding | 108 % WT binding | 116 % WT binding | Mean % WT Binding (human CD33 S131K): 87.7 % WT binding; Mean % WT Binding (human CD33 P132K): 65 % WT binding; Mean % WT Binding (human CD33 S131Q): 93.9 % WT binding; Mean % WT Binding (human CD33 S131W): 91.9 % WT binding; Mean % WT Binding (human CD33 P132Y): 85.2 % WT binding; Mean % WT Binding (human CD33 P132D): 92.7 % WT binding; Mean % WT Binding (human CD33 P132H): 87.8 % WT binding; Mean % WT Binding (human CD33 P132F): 79.4 % WT binding
3 | B3 | – | – | – | – | – | – | – | – | – | – | – | – | – | – | – | – | – | – | – | – | Signal:Background (human wild-type CD33): 38 signal:background ratio
4 | B4 | 105 % WT binding | 97.5 % WT binding | 99.6 % WT binding | 102 % WT binding | 90.3 % WT binding | 86.9 % WT binding | 90.6 % WT binding | 103 % WT binding | 100 % WT binding | 97.6 % WT binding | 99.8 % WT binding | 99 % WT binding | 85.7 % WT binding | 86.8 % WT binding | 96.7 % WT binding | 91.8 % WT binding | 94.7 % WT binding | 2.4 % WT binding | 94.4 % WT binding | 102 % WT binding | Mean % WT Binding (human CD33 S131K): 100 % WT binding; Mean % WT Binding (human CD33 P132K): 102 % WT binding; Mean % WT Binding (human CD33 S131Q): 97.3 % WT binding; Mean % WT Binding (human CD33 S131W): 87.5 % WT binding; Mean % WT Binding (human CD33 P132Y): 78.6 % WT binding; Mean % WT Binding (human CD33 P132D): 99.6 % WT binding; Mean % WT Binding (human CD33 P132H): 92.7 % WT binding; Mean % WT Binding (human CD33 P132F): 71.3 % WT binding
5 | B5 | – | – | – | – | – | – | – | – | – | – | – | – | – | – | – | – | – | – | – | – | Signal:Background (human wild-type CD33): 44 signal:background ratio
6 | B6 | 94.6 % WT binding | 91.9 % WT binding | 96.6 % WT binding | 92.9 % WT binding | 91.6 % WT binding | 91.7 % WT binding | 92.5 % WT binding | 96.4 % WT binding | 91.4 % WT binding | 105 % WT binding | 98.9 % WT binding | 81.2 % WT binding | 97.7 % WT binding | 83 % WT binding | 94.6 % WT binding | 95.6 % WT binding | 105 % WT binding | 3.1 % WT binding | 106 % WT binding | 97.2 % WT binding | Mean % WT Binding (human CD33 S131K): 102 % WT binding; Mean % WT Binding (human CD33 P132K): 99.6 % WT binding; Mean % WT Binding (human CD33 S131Q): 101 % WT binding; Mean % WT Binding (human CD33 S131W): 97.6 % WT binding; Mean % WT Binding (human CD33 P132Y): 93.5 % WT binding; Mean % WT Binding (human CD33 P132D): 89.9 % WT binding; Mean % WT Binding (human CD33 P132H): 84.9 % WT binding; Mean % WT Binding (human CD33 P132F): 91.3 % WT binding
